Assay results as given in patent publication US20230295310A1 (ABCELLERA BIOLOGICS, published 2023).
Changes are numbered by the printed parent chain.

B1: GOMP001_bsAb_032 (bispecific antibody, human IgG1, kappa, L234A L235A)
heavy 1: QGQLVESGGGVVQPGRSLRLSCAASGFTFRGFGMHWVRYAPGKGLEWVAIIYYDGKNKYYADRVKGRFTISRDNSKNTLYLQMNSLRAEDTAVYYCAKGGGYNWFDPWGRGTLVTVSSASTKGPSVFPLAPSSKSTSGGTAALGCLVKDYFPEPVTVSWNSGALTSGVHTFPAVLQSSGLYSLSSVVTVPSSSLGTQTYICNVNHKPSNTKVDKKVEPKSCDKTHTCPPCPAPEAAGGPSVFLFPPKPKDTLMISRTPEVTCVVVDVSHEDPEVKFNWYVDGVEVHNAKTKPREEQYNSTYRVVSVLTVLHQDWLNGKEYKCKVSNKALPAPIEKTISKAKGQPRRPRVYTLPPSREEMTKNQVSLVCLVKGFYPSDIAVEWESNGQPENNYKTTPPVLDSDGSFFLYSVLTVDKSRWQQGNVFSCSVMHEALHNHYTQKSLSLSPG
light 1: DIQMTQSPSSLSASVGDRVTITCRASQSISTYLNWYQRKPGDAPKLLIYSASSLQSGVPSRFSGSGSGTDFTLTISNLQPEDFAIYYCQRSYSPPFTFGPGTKLDIRRTVAAPSVFIFPPSDEQLKSGTASVVCLLNNFYPREAKVQWKVDNALQSGNSQESVTEQDSKDSTYSLSSTLTLSKADYEKHKVYACEVTHQGLSSPVTKSFNRGEC
heavy 2: QVQLVQSGAEVKKPGASVKVSCKASGYTFTSHWMHWVRYAPGQGLEWIGEFNPSNGRTNYNEKFKSKATMTVDTSTNTAYMELSSLRSEDTAVYYCASRDYDYDGRYFDYWGRGTLVTVSSASTKGPSVFPLAPSSKSTSGGTAALGCLVKDYFPEPVTVSWNSGALTSGVHTFPAVLQSSGLYSLSSVVTVPSSSLGTQTYICNVNHKPSNTKVDKKVEPKSCDKTHTCPPCPAPEAAGGPSVFLFPPKPKDTLMISRTPEVTCVVVDVSHEDPEVKFNWYVDGVEVHNAKTKPREEQYNSTYRVVSVLTVLHQDWLNGKEYKCKVSNKALPAPIEKTISKAKGQPRRPRVYTLPPSREEMTKNQVSLVCLVKGFYPSDIAVEWESNGQPENNYKTTPPVLDSDGSFFLYSVLTVDKSRWQQGNVFSCSVMHEALHNHYTQKSLSLSPG
light 2: DIQMTQSPSSLSASVGDRVTITCSASSSVTYMYWYQRKPGDAPKLLIYDTSNLASGVPSRFSGSGSGTDYTFTISSLQPEDIATYYCQQWSSHIFTFGQGTKVEIKRTVAAPSVFIFPPSDEQLKSGTASVVCLLNNFYPREAKVQWKVDNALQSGNSQESVTEQDSKDSTYSLSSTLTLSKADYEKHKVYACEVTHQGLSSPVTKSFNRGEC
B2: GOMP001_bsAb_039 (bispecific antibody, human IgG1, kappa, L234A L235A)
heavy 1: QVQLVQSGAEVKKPGASVKVSCKASGYTFTSHWMHWVRKAPGQGLEWIGEFNPSNGRTNYNEEFKSKATMTVDTSTNTAYMELSSLRSEDTAVYYCASRDYDYDGRYFDYWGQGTLVTVSSASTKGPSVFPLAPSSKSTSGGTAALGCLVADYFPEPVTVSWNSGALTSGVHTFPAVLQSSGLYSLSSVVTVPSSSLGTQTYICNVNHKPSNTKVDEKVEPKSCDKTHTCPPCPAPEAAGGPSVFLFPPKPKDTLMISRTPEVTCVVVDVSHEDPEVKFNWYVDGVEVHNAKTKPREEQYNSTYRVVSVLTVLHQDWLNGKEYKCKVSNKALPAPIEKTISKAKGQPREPQVYTLPPSREEMTDNQVSLTCLVKGFYPSDIAVEWESNGQPENNYKTTPPVLMSDGSFFLASKLTVDKSRWQQGNVFSCSVMHEALHNHYTQKSLSLSPG
light 1: B1 light 2 with D1R, R37D, D41K, E122K, S130R
heavy 2: EVQLVESGGGLVKTGGSHRLSCVASGFSFKKAWMNWVRYAPGKGLEWVGRIKRNSDGGTTDYAARVKGRFILSRDDSKNTLYLQMNSLKTEDTAVYYCTTLDSSSWYVGYYYMDVWGRGTTVTVSSASTKGPSVFPLAPSSKSTSGGTAALGCLVKDYFPEPVTVSWNSGALTSGVHTFPAVLQSSGLYSLSSVVTVPSSSLGTQTYICNVNHKPSNTKVDKKVEPKSCDKTHTCPPCPAPEAAGGPSVFLFPPKPKDTLMISRTPEVTCVVVDVSHEDPEVKFNWYVDGVEVHNAKTKPREEQYNSTYRVVSVLTVLHQDWLNGKEYKCKVSNKALPAPIEKTISKAKGQPRRPRVYTLPPSREEMTKNQVSLVCLVKGFYPSDIAVEWESNGQPENNYKTTPPVLDSDGSFFLYSVLTVDKSRWQQGNVFSCSVMHEALHNHYTQKSLSLSPG
light 2: DIQMTQSPSSVSASVGDRVTITCRASQDINNWLAWYQRKPGDAPKILIYTASNLQSGVPSRFSGSGSGTDFTLTISSLQPEDFATYFCQQAHSLPITFGQGTRLEIKRTVAAPSVFIFPPSDEQLKSGTASVVCLLNNFYPREAKVQWKVDNALQSGNSQESVTEQDSKDSTYSLSSTLTLSKADYEKHKVYACEVTHQGLSSPVTKSFNRGEC
B3: GOMP001_bsAb_043 (bispecific antibody, human IgG1, kappa, L234A L235A)
heavy 1: B2 heavy 1
light 1: B1 light 2 with D1R, R37D, D41K, E122K, S130R
heavy 2: B2 heavy 2 with H18L, S55T, T60A, I71T, N79K, Y82F, W106Y
light 2: B2 light 2 with I46L, N53S, S76G, F87Y
B4: GOMP001_bsAb_040 (bispecific antibody, human IgG1, kappa, L234A L235A)
heavy 1: B2 heavy 2
light 1: B2 light 2
heavy 2: B1 heavy 2
light 2: B1 light 2
B5: GOMP001_bsAb_038 (bispecific antibody, human IgG1, kappa, L234A L235A)
heavy 1: B2 heavy 2 with G10V, H18L, T59A, T60A, G68D, I71T
light 1: B2 light 2 with Q3H, V15L, I21F, D28N, I46L, N53S, E81D, F87Y, E105G
heavy 2: B1 heavy 2
light 2: B1 light 2
B6: GOMP001_bsAb_041 (bispecific antibody, human IgG1, kappa, L234A L235A)
heavy 1: B2 heavy 1
light 1: B1 light 2 with D1R, R37D, D41K, E122K, S130R
heavy 2: B2 heavy 2 with H18L, S55T, T59P, T60A, I71T, N79K
light 2: B2 light 2 with T20I, Q37L, K39R, I46L, T50A, N53S, S76G, F87Y, K107Q
B7: GOMP001_bsAb_037 (bispecific antibody, human IgG1, kappa, L234A L235A)
heavy 1: B2 heavy 1
light 1: B1 light 2 with D1R, R37D, D41K, E122K, S130R
heavy 2: B2 heavy 2 with G10V, H18L, T59A, T60A, G68D, I71T
light 2: B2 light 2 with Q3H, V15L, I21F, D28N, I46L, N53S, E81D, F87Y, E105G
B8: GOMP001_bsAb_042 (bispecific antibody, human IgG1, kappa, L234A L235A)
heavy 1: B2 heavy 2 with H18L, S55T, T59P, T60A, I71T, N79K
light 1: B2 light 2 with T20I, Q37L, K39R, I46L, T50A, N53S, S76G, F87Y, K107Q
heavy 2: B1 heavy 2
light 2: B1 light 2

Molecular target: human EGFR, C-terminal eGFP-tagged, on CHO-K1 cells (human, UniProt P00533 25-1210)
Assay: cell-based or functional assay

| Binder | EC50 CHO-K1 EGFR Low (nM); T cell activation bioassay, luciferase [nM] | EC50 CHO-K1 EGFR Med (nM); T cell activation bioassay, luciferase [nM] |
| --- | --- | --- |
| B1 | 0.122 | 0.0482 |
| B2 | 0.369 | 0.0257 |
| B3 | 0.0706 | 0.0122 |
| B4 | 0.0499 | 0.0038 |
| B5 | 0.0248 | 0.00489 |
| B6 | 0.297 | 0.022 |
| B7 | 0.183 | 0.028 |
| B8 | 0.0439 | 0.00223 |
